# Reference: patent US20220356229A1 (published 2022)
# Target: SARS-CoV-2 Spike (S) protein, wild type, full length (SARS-CoV-2, UniProt P0DTC2 14-1208)
row,Binder,bead binding signal (fold over isotype)
1,"antibody 265 (antibody, V domains shown) VH: EVQLVQSGAEVKKPGATVKVSCKFSGDTFSHYYIHWVQQAPGKGLEWMGLVDPQDGESEYAQKFQGKVTITADTSIDTSYLEVTSLRFDDTAFYFCATRGMSGAFDRWGQGTLVTVSS VL: DIVMTQSPDSLAVSLGERATINCKSSQSILSTSNNKNYLAWYQQKPGQPPKLLIYWASTRESGVPDRFSGGGSGTDFTLTISSLQAEDVAVYYCQQYYRTAYTTPIYTFGQGTKLEIK",1280 fold over isotype
2,"antibody 264 (antibody, V domains shown) VH: QVHLVESGGGVVQPGRSLRLSCAASGFTLTSYAMHWVRQAPGKGLEWVALISYDGSVKKYAESVKGRITVSGDNSRNTLHLQINTLRADDTAVYYCVRGGVSGPNSFDLWGQGTMVTVSS VL: DVVMTQSPLSLPVTLGQPASISCRSSQSLEYSDGNTYVNWFQQRPGQSPRRLIYQVSNRASGVPDRFSGSGSGTDFTLQISRVEAEDVGIYYCMQGTHWPVTFGQGTKVEIK",598 fold over isotype
3,"antibody 260 (antibody, V domains shown) VH: EVQLVESGGGLVQPGRSLRLSCAASGFTFDYYAMHWVRQAPGKGLEWVSGISWNSGTIGYADSVKGRFTISRDNAKNSLYLQMNSLRAEDTALYYCAKDSRPSGRYYYGMDVWGQGTTVTVSS VL: not shown",724 fold over isotype
4,"antibody 263 (antibody, V domains shown) VH: EVQLVQSGAEVKKPGATVKISCKVSGYTFTDYYMHWVQQAPGKGLEWMGLVDPEDGETIYAEKFQGRVTITADTSTDTAYMELSSLRSDDTAVYYCTTDLAFTIFGGRRGFDPWGQGTLVTVSS VL: DIQLTQSPSFLSASVGDRVTITCRASQGISSYLAWYQQKPGKAPKLLIYAASTLQSGVPSRFSGSGSGTEFTLTISSLQPEDFATYYCQQLNSYDFGQGTRLEIK",722 fold over isotype
5,"antibody 276 (antibody, V domains shown) VH: QVQLQESGPGLVKPSQTLSLTCTVSGDSISSGGYYWSWIRQHPGKGLEWIGYIYYSGSAYYNPSLKSRVTISLDTSKNQFSLKLSSVTAADTAVYYCARDSVAGFSIFDYWGQGTLVTVSS VL: SSELTQDPAVSVALGQTVRITCQGDSLRSYYASWYQQKPGQAPVRVIYGKNNRPSGIPDRFSGSSSGNTASLTITGAQAEDEADYYCNSWDSSGNHVVFGGGTKLTVL",748 fold over isotype
6,"antibody 281 (antibody, V domains shown) VH: not shown VL: QSALTQPASVSGSPGQSITISCTGTSSDVGSYNLVSWYQQHPGKAPKLMIYEVSKRPSGVSNRFSGSKSGNTASLTISGLQAEDEADYYCCSYAGSSTHVVFGGGTKLTVL",570 fold over isotype
7,"antibody 273 (antibody, V domains shown) VH: QVQLVQSGAEVKKPGASVKVSCKVSGYTLTELSMHWVRQAPGKGLEWMGGFDPEDGETIYAQKFQGRVTMTEDTSTDTAYMELSSLRSEDTAVYYCATAPGYYDSSAPQPINWFDPWGQGTLVTVSS VL: QSALTQPASVSGSPGQSITISCTGTSSDVGSYNLVSWYQQHPGKAPKLMIYEVSKRPSGVSNRFSGSKSGNTASLTISGLQAEDEADYYCCSYAGSSTLVFGGGTKLTVL",924 fold over isotype

# Target: SARS-CoV Spike protein (full length Spike, coupled to optically encoded beads) (SARS-CoV, UniProt P59594 14-1190)
row,Binder,"median fluorescence, fold over isotype"
1,"anti-SARS-CoV-2 antibody 385 (antibody, V domains shown) VH: QVQLVESGGGVVQPGRSLRLSCAASGFTFSSYAIHWVRQAPGKGLEWVAVISYDGSNKYYADSVKGRFTISRDNSKNTLYLQMNSLRAEDTAVYYCARPRSGSYWGAFDIWGQGTMVTVSS VL: QSVLTQPPSVSGAPGQRVTISCTGSSSNIGARYDVHWYQQLPGTAPKLLIYGNSNRPSGVPDRFSGSKSGTSASLAITGLQAEDEADYYCQSYDSSLRGVFGGGTKLTVL",59.6 fold over isotype
2,"anti-SARS-CoV-2 antibody 392 (antibody, V domains shown) VH: QVQLQESGPGLVKPSGTLSLTCAVSGGSISSSNWWSWVRQPPGKGLEWIGEIYHSGSTNYNPSLKSRVTISVDKSKNQFSLKLSSVTAADTAVYYCARGWRATLYGMDVWGQGTTVTVSS VL: QSALTQPASVSGSPGQSITISCTGTSSDVGSYNLVSWYQQHPGKAPKLMIYEVSKRPSGVSNRFSGSKSGNTASLTISGLQAEDEADYYCCSYAGSSTWVFGGGTKLTVL",1.08 fold over isotype
